# US20170260272A1 (Novartis, published 2017)
# Where two headings read alike, the source gives them in different places.
# How the values were obtained:
# [1] = target: T1, APP-Avi-soluble human LOX-1(61-273) (human, UniProt P78380 61-273); experiment: SET, IgG vs soluble human LOX-1
# Protocol: (§1) Affinity determination for anti-LOX-1 IgGs using Solution Equilibrium Titration (SET) was basically performed as described in the literature (Friguet et al., 1985 J Immunol Methods 77: 305-319). The assays were performed in a 96-well polypropylene plate (Thermo Scientific, Catalog no. AB-1127) using a constant concentration of LOX-1 antibody mixed with different concentrations of non-biotinylated human or cynomolgus monkey LOX-1 protein and incubated at 22° C. for 14 hours with constant shaking (300 rpm).
# (§2) On a pre-blocked MSD plate (Meso Scale Discovery, catalog no. L21SA) biotinylated human or cynomolgus monkey soluble LOX-1 protein was immobilized and washed afterwards. The equilibrium binding reactions were then applied to the MSD plate with immobilized LOX-1 and incubated for 30 min. The unbound material was removed by washing the plate, and the captured antibody was detected by adding Sulfo-tagged goat anti-human IgG (Meso Scale Discovery, catalog no. R3AJ-1). After incubation and washing 1×MSD read buffer T(Meso Scale Discovery, catalog no. R92TC-2) was added and the plate was developed using a Sector Imager 6000 (Meso Scale Discovery). The data were transferred to Excel for analysis and plotted using GraphPad Prism v5. The KD values were determined by fitting the data to the following equation: […]
# [2] = target: T1, APP-Avi-soluble human LOX-1(61-273); experiment: SET, IgG vs soluble human LOX-1; remark: listed apart in the source
# Protocol: as §1, §2
# [3] = target: T2, APP-Avi-soluble cynomolgus monkey LOX-1(61-273) (cynomolgus monkey); experiment: SET, IgG vs soluble cynomolgus LOX-1
# T2 construct: Non-biotinylated as titrated antigen in SET, biotinylated for capture on the plate; also called cyno sLOX-1; cynomolgus monkey soluble LOX-1
# T2 sequence (chain, as listed by the source limits assumed): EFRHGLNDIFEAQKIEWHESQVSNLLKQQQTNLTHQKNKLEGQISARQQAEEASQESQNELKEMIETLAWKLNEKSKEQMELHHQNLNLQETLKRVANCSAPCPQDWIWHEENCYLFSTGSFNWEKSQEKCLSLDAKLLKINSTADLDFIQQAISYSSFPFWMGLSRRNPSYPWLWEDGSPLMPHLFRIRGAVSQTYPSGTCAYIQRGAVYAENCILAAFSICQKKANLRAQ
# Protocol: as §1, §2
# [4] = target: T1, APP-Avi-soluble human LOX-1(61-273); experiment: competition ELISA: oxLDL binding to plate-bound biotinylated human sLOX-1
# Protocol: NeutrAvidin 384 well plates were coated with 2.5 μg/ml biotinylated LOX-1 diluted in PBS. After blocking with 25% Block Ace (AbD Serotec, Cat#BUF029) in PBS, purified Fabs or IgGs diluted in PBS/1% BSA were added. Subsequently OxLDL (copper-sulfate oxidized LDL, Kalen Biomedical #770202) or MDA-LDL (Academy Biomedical, #20P-UMD-L102) ligand diluted in PBS/1% BSA were allowed to bind to coated LOX-1. Secondary antibody (HRP conjugated sheep anti ApoB IgG; The Binding Site) diluted 1:1,000 in PBS/1% BSA was added followed by addition of TMB substrate (Thermo Scientific). After 10 minutes 1M H2SO4 was added and absorbance was determined at 450 nm. During early screenings, Fab fragments were also tested in this oxLDL binding assay using Fab-containing crude E. coli lysates.
# The ability of LOX-1 antibodies to inhibit oxLDL binding to LOX-1 protein was determined using the method described in Example 4. In addition to “high binding OxLDL” from Kalen Biomedical (catalog number 770212-7), which is generated by copper sulfate mediated oxidation of LDL, two other forms of modified LDL were tested in this assay: malondialdehyde modified LDL (Academy Bio-Medical Co. catalog number 20P-MD-L105) and hypochlorite modified LDL. Hypochlorite modified LDL was prepared according to the following procedure. Human LDL (Kalen Biomedical catalog number 770200-4) was diluted with PBS to a final concentration of 0.25 mg/mL. Sodium hypochlorite (NaOCI, JT Baker catalog number 9416-01) was then added to 0.1 mM final concentration. The solution was incubated at room temperate for 4 hours, then quenched by adding L-methionine to a final concentration of reaction by adding 5 μl of 100 mM Mehionine per 200 μl total volume.
# [5] = target: T1, APP-Avi-soluble human LOX-1(61-273); experiment: competition ELISA: AGE-BSA binding to plate-bound biotinylated human sLOX-1
# Protocol: Purified APP-Avi-soluble human soluble LOX-1(61-273) protein prepared as described in Example 1 was biotinylated as described in Example 5. NeutrAvidin 384 well plates were coated with 5 μg/ml biotinylated LOX-1 diluted in bicarbonate buffer (Thermo Scientific). After blocking with PBS/2% BSA/0.1% Tween20/0.1% TritonX-100, purified Fabs or IgGs diluted in PBS/2% BSA/0.1% Tween20/0.1% TritonX-100 were added. Subsequently AGE-BSA ligand (R&D Systems, #BT4127) diluted in PBS/2% BSA/0.1% Tween20/0.1% TritonX-100 was allowed to bind to coated LOX-1. Streptavidin-HRP (R&D Systems) diluted 1:200 in PBS/2% BSA/0.1% Tween20/0.1% TritonX-100 was added followed by addition of TMB substrate (Thermo Scientific). After 10 minutes 1M H₂SO₄ was added and absorbance was determined at 450 nm. Assay performance was affected by the type of BSA used for blocking and diluent solutions. For optimal assay performance, BSA from Sigma (catalog #A4503) was used.
Binder,Kd [1],Kd [2],Kd [3],IC50 [4],IC50 [5]
"MOR021453 (antibody, human IgG1, lambda, L234A L235A, also called MOR21453) heavy: not shown light: DIALTQPASVSGSPGQSITISCTGTSSDVGYINYVNWYQQHPGKAPKLMIYEVSNRPSGVSNRFSGSKSGNTASLTISGLQAEDEADYYCASWDWYDNVVFGGGTKLTVLGQPKAAPSVTLFPPSSEELQANKATLVCLISDFYPGAVTVAWKADSSPVKAGVETTTPSKQSNNKYAASSYLSLTPEQWKSHRSYSCQVTHEGSTVEKTVAPTECS",4 pM,4 pM,7 pM,2600 pM,1600 pM
"MOR021433 (antibody, human IgG1, kappa, L234A L235A, V domains shown, also called MOR21433) VH: QVQLVQSGAEVKKPGSSVKVSCKASGGTFSDYAISWVRQAPGQGLEWMGGIMPISGAPYYAQKFQGRVTITADESTSTAYMELSSLRSEDTAVYYCARDSSTSYYYYFDYWGQGTLVTVSS VL: DIQMTQSPSSLSASVGDRVTITCRASQDINSWLAWYQQKPGKAPKLLIYQASNLQSGVPSRFSGSGSGTDFTLTISSLQPEDFATYYCQQIDHTPFTFGQGTKVEIKR",2.5 pM,3 pM,4 pM,2900 pM,1400 pM
"MOR021435 (antibody, human IgG1, kappa, L234A L235A, V domains shown, also called MOR21435) VH: QVQLVQSGAEVKKPGSSVKVSCKASGGTFSDYAISWVRQAPGQGLEWMGGIVPIVGTANYAQKFQGRVTITADESTSTAYMELSSLRSEDTAVYYCARDSSTSYYYYFDYWGQGTLVTVSS VL: DIQMTQSPSSLSASVGDRVTITCRASQDINSWLAWYQQKPGKAPKLLIYQASNLQSGVPSRFSGSGSGTDFTLTISSLQPEDFATYYCQQMWQFPITFGQGTKVEIKR",6 pM,5 pM,5 pM,2800 pM,1700 pM

# More lines, now with the values ahead:
Kd [1],Kd [2],Kd [3],IC50 [4],IC50 [5],Binder
7.5 pM,10 pM,7 pM,3200 pM,2200 pM,"MOR021452 (antibody, human IgG1, lambda, L234A L235A, also called MOR21452) heavy: not shown light: DIALTQPASVSGSPGQSITISCTGTSSDVGYINYVNWYQQHPGKAPKLMIYEVSNRPSGVSNRFSGSKSGNTASLTISGLQAEDEADYYCASWDWYDNVVFGGGTKLTVLGQPKAAPSVTLFPPSSEELQANKATLVCLISDFYPGAVTVAWKADSSPVKAGVETTTPSKQSNNKYAASSYLSLTPEQWKSHRSYSCQVTHEGSTVEKTVAPTECS"
0.3 pM,0.3 pM,0.7 pM,4000 pM,2100 pM,"MOR021460 (antibody, human IgG1, lambda, L234A L235A, V domains shown, also called MOR21460) VH: QVQLLESGGGLVQPGGSLRLSCAASGFTFSDYALHWVRQAPGKGLEWVSVISYQGGFIYYADSVKGRFTISRDNSKNTLYLQMNSLRAEDTAVYYCARSPGLTSYHDSWGQGTLVTVSS VL: DIVLTQPPSVSGAPGQRVTISCSGSSSNIGSNYVSWYQQLPGTAPKLLIHSNSHRPSGVPDRFSGSKSGTSASLAITGLQAEDEADYYCQSWDYESERVVFGGGTKLTVLG"
0.65 pM,0.6 pM,0.5 pM,4800 pM,2400 pM,"MOR021468 (antibody, human IgG1, lambda, L234A L235A, V domains shown, also called MOR21468) VH: QVQLLESGGGLVQPGGSLRLSCAASGFTFSDYALHWVRQAPGKGLEWVSVISYAGGFKFYADSVKGRFTISRDNSKNTLYLQMNSLRAEDTAVYYCARSPGLTSYHDSWGQGTLVTVSS VL: DIVLTQPPSVSGAPGQRVTISCSGSSSNIGSNYVSWYQQLPGTAPKLLIHSNSHRPSGVPDRFSGSKSGTSASLAITGLQAEDEADYYCQSWDYESERVVFGGGTKLTVLG"
